Laboratory results taken from PMC10276142, “Protocol to measure protein-RNA binding using double filter-binding assays followed by phosphorimaging or high-throughput sequencing”.

Molecular target: AGO2 (miR-449a RISC) (mouse, UniProt Q8CJG0 1-860)
Test: filter binding; titration regime, 0.5 nM target RNA (2.5 nM stock, 1 in 5), 37 C 1 h; stoichiometric point [RISC]/[target] 1.3 (77% active); no KD reported; Double filter binding (nitrocellulose/nylon), 5 uL reactions, 37 C for 1 h; compositions of Storage, Dilution and Reaction Mix buffers not given in material
Settings: protein: recombinant; tags: FLAG; label: 5' 32P on target; guide:target seed pairing, guide nt 2-8 plus A opposite nt 1; rest of target single-stranded

Chain of AGO2 (miR-449a RISC) (Q8CJG0 whole entry): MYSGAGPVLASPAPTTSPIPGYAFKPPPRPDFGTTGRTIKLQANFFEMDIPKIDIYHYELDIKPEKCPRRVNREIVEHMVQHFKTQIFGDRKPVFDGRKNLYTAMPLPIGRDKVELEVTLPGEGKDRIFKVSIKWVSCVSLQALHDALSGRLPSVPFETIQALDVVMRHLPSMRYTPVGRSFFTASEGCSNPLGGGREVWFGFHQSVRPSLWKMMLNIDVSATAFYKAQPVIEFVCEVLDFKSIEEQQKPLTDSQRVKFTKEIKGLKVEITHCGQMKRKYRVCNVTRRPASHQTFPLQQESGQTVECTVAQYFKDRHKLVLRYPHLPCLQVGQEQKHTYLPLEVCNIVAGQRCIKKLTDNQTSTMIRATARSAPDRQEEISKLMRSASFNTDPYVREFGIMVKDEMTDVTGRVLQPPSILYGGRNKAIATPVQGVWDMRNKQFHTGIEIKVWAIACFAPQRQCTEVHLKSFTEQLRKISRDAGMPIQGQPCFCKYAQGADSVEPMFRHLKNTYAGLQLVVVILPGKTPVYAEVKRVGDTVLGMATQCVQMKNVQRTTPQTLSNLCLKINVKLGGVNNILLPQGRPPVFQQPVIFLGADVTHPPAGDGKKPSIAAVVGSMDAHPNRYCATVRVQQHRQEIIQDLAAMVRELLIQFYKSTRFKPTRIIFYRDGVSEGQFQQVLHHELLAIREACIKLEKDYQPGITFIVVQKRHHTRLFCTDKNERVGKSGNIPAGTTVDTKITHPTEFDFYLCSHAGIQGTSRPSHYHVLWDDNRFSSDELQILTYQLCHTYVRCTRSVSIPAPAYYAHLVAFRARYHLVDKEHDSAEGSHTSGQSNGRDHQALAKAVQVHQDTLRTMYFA

B1: miR-449a guide / 8mer-site target RNA (mixed)
RNA 1: UGGCAGUGUAUUGUUAGCUGGU
RNA 2: AUGAAAUCGAUAUCUAUCACUGCCAACU
modifications: guide 5'-phosphate; target 5' 32P-phosphate
binding result: binds
